According to paper PMC11839208 (2025):

Biological target: Concanavalin A (Canavalia ensiformis, UniProt P02866)
Assay: spectral shift (thermal shift in results)

Sequence of Concanavalin A (P02866 30-148, chain 1 of 2): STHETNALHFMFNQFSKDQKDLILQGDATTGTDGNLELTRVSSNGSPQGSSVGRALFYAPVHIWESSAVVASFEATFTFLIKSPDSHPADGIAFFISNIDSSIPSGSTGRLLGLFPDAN
Sequence of Concanavalin A (P02866 164-281, chain 2 of 2): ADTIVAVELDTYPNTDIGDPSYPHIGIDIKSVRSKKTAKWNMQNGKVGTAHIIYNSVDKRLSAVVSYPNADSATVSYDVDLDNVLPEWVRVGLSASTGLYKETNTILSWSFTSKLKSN

B1: FimA (protein)
chain: AATTVNGGTVHFKGEVVNAACAVDAGSVDQTVQLGQVRTASLAQEGATSSAVGFNIQLNDCDTNVASKAAVAFLGTAIDAGHTNVLALQSSAAGSATNVGVQILDRTGAALTLDGATFSSETTLNNGTNTIPFQARYFATGAATPGAANADATFKVQYQ
Kd: ~40 µM
